T1: OX40 on activated T cells (PBMCs activated with Human T cell Activator Dynabeads) (human, UniProt P43489 29-277)
T1 construct: Native OX40 on donor PBMC T cells; also called OX40 on CD8+ T cells (low levels); OX40 on CD4+ T cells (high levels)
T1 sequence: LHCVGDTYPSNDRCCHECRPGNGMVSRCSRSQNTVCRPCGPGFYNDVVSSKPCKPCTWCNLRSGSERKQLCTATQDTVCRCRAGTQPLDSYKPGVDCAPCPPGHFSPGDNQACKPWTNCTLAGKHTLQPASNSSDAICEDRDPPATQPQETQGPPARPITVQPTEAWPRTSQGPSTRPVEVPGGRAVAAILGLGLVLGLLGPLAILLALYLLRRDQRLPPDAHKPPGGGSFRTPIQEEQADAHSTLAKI

B1: Anti-OX40 #1-IgM (antibody, V domains shown)
VH: QVQLQESGPGLVKPSQTLSLTCAVYGGSFSSGYWNWIRKHPGKGLEYIGYISYNGITYHNPSLKSRITINRDTSKNQYSLQLNSVTPEDTAVYYCARYKYDYDGGHAMDYWGQGTLVTVSS
VL: DIQMTQSPSSLSASVGDRVTITCRASQDISNYLNWYQQKPGKAPKLLIYYTSKLHSGVPSRFSGSGSGTDYTLTISSLQPEDFATYYCQQGSALPWTFGQGTKVEIK
B2: Anti-OX40 #1-IgG (antibody, V domains shown)
VH: QVQLQESGPGLVKPSQTLSLTCAVYGGSFSSGYWNWIRKHPGKGLEYIGYISYNGITYHNPSLKSRITINRDTSKNQYSLQLNSVTPEDTAVYYCARYKYDYDGGHAMDYWGQGTLVTVSS
VL: DIQMTQSPSSLSASVGDRVTITCRASQDISNYLNWYQQKPGKAPKLLIYYTSKLHSGVPSRFSGSGSGTDYTLTISSLQPEDFATYYCQQGSALPWTFGQGTKVEIK
notes: VH and VL put into an IgG format by standard cloning; It was detected with anti-human kappa light chain, so the light chain is kappa; also called anti-OX40 IgG #1

How the values were obtained:
[1] = target: OX40 in the PathHunter U2OS OX40 Signaling Assay (DiscoverX) cells; test: cell-based or functional assay
[2] = target: T1, OX40 on activated T cells (PBMCs …); test: flow cytometry on activated PBMC T cells
Protocol: Ab binding was tested on PBMCs activated for 3 days with Human T cell Activator Dynabeads (Thermo-Fisher) to induce low levels of OX40 on CD8+ T cells (FIG. 3A, 3C) or high levels of OX40 on CD4+ T cells (FIG. 3B, 3D). […] For the PBMCs, anti-CD3-A647 (Biolegend) and CD4-PerCP-CY5.5 (Biolegend) were also included to gate on CD4+CD3+ CD4 T cells and CD4-CD3+ CD8 T cells. FACS data was acquired on a FACSCalibur (BD), analyzed in FlowJo (TreeStar), and plotted in GraphPad Prism. […] Kd was calculated for each antibody in GraphPad Prism software using One Site-Specific binding with Hill slope.

| Binder | fold increase in NF-kB activation (RLU at the highest antibody concentration) compared to uncross-linked Anti-OX40 #1-IgG [1] | fold increase in signaling activation (RLU at the highest antibody concentration) compared to cross-linked Anti-OX40 #1-IgG [1] | binding result [2] |
| --- | --- | --- | --- |
| B1 | 23 fold | 13 fold | – |
| B2 | – | – | binds |
